Experimental data from US20240218057A1.

Columns and labels:
Assay in all cases: cell-based or functional assay
[1] = target: SARS-COV-2 spike protein A475V on pseudotyped virus (SARS-CoV-2) (UniProt P0DTC2)
[2] = target: SARS-COV-2 spike protein E484K (R683G) on pseudotyped virus (SARS-CoV-2) (UniProt P0DTC2)
[3] = target: SARS-COV-2 spike protein K417N on pseudotyped virus (SARS-CoV-2) (UniProt P0DTC2)
[4] = target: SARS-COV-2 spike protein N440K on pseudotyped virus (SARS-CoV-2) (UniProt P0DTC2)
[5] = target: SARS-COV-2 spike protein N501Y on pseudotyped virus (SARS-CoV-2) (UniProt P0DTC2)
[6] = target: SARS-COV-2 spike protein R346S on pseudotyped virus (SARS-CoV-2) (UniProt P0DTC2)
[7] = target: SARS-COV-2 spike protein R683G on pseudotyped virus (SARS-CoV-2) (UniProt P0DTC2)
[8] = target: SARS-CoV-2 spike protein A475V (pseudovirus) (SARS-CoV-2) (UniProt P0DTC2)
[9] = target: SARS-CoV-2 spike protein E484K (R683G) (pseudovirus) (SARS-CoV-2) (UniProt P0DTC2)
[10] = target: SARS-CoV-2 spike protein K417N (pseudovirus) (SARS-CoV-2) (UniProt P0DTC2)
[11] = target: SARS-CoV-2 spike protein K417N/E484K/N501Y (R683G) (pseudovirus) (SARS-CoV-2) (UniProt P0DTC2)
[12] = target: SARS-CoV-2 spike protein N440K (pseudovirus) (SARS-CoV-2) (UniProt P0DTC2)
[13] = target: SARS-CoV-2 spike protein N501Y (pseudovirus) (SARS-CoV-2) (UniProt P0DTC2)
[14] = target: SARS-CoV-2 spike protein Q493R (pseudovirus) (SARS-CoV-2) (UniProt P0DTC2)
[15] = target: SARS-CoV-2 spike protein R346S (pseudovirus) (SARS-CoV-2) (UniProt P0DTC2)
[16] = target: SARS-CoV-2 spike protein R683G (pseudovirus) (SARS-CoV-2) (UniProt P0DTC2)

In the case of C121 (antibody), the neutralization IC50 [1] is reported as 0.00253 µg/mL, the neutralization IC90 [1] is reported as 0.0183 µg/mL and the neutralization IC50 [2] is reported as > 1 µg/mL. The neutralization IC90 [2] was > 1 µg/mL, the neutralization IC50 [3] was 0.0031 µg/mL and the neutralization IC90 [3] was 0.0163 µg/mL. The neutralization IC50 [4] was 0.0035 µg/mL, the neutralization IC90 [4] was 0.0182 µg/mL and the neutralization IC50 [5] was 0.00375 µg/mL. The neutralization IC90 [5] was 0.0189 µg/mL, the neutralization IC50 [6] was 0.00363 µg/mL and the neutralization IC90 [6] was 0.0156 µg/mL. The neutralization IC50 [7] was 0.00167 µg/mL and the neutralization IC90 [7] was 0.0108 µg/mL.

In the case of C135 (antibody), the neutralization IC50 [1] is reported as 0.00461 µg/mL, the neutralization IC90 [1] is reported as 0.0272 µg/mL and the neutralization IC50 [2] is reported as 0.00199 µg/mL. It also gave a neutralization IC90 [2] of 0.02 µg/mL, a neutralization IC50 [3] of 0.00348 µg/mL and a neutralization IC90 [3] of 0.0147 µg/mL. For the same substance, the neutralization IC50 [4] was > 1 µg/mL, the neutralization IC90 [4] was > 1 µg/mL and the neutralization IC50 [5] was 0.0129 µg/mL. The neutralization IC90 [5] was 0.141 µg/mL, the neutralization IC50 [6] was > 1 µg/mL and the neutralization IC90 [6] was > 1 µg/mL. The neutralization IC50 [7] was 0.00271 µg/mL and the neutralization IC90 [7] was 0.0228 µg/mL.

With C144 (antibody) the neutralization IC50 [1] was 0.00319 µg/mL, the neutralization IC90 [1] was 0.0162 µg/mL and the neutralization IC50 [2] was > 1 µg/mL. The neutralization IC90 [2] was > 1 µg/mL, the neutralization IC50 [3] was 0.00184 µg/mL and the neutralization IC90 [3] was 0.0115 µg/mL. For the same substance, the neutralization IC50 [4] was 0.0024 µg/mL, the neutralization IC90 [4] was 0.0135 µg/mL and the neutralization IC50 [5] was 0.00305 µg/mL. For the same substance, the neutralization IC90 [5] was 0.0189 µg/mL, the neutralization IC50 [6] was 0.00341 µg/mL and the neutralization IC90 [6] was 0.0167 µg/mL. For the same substance, the neutralization IC50 [7] was 0.00123 µg/mL, the neutralization IC90 [7] was 0.00666 µg/mL and the IC50 neutralization [8] was 0.0032 µg/mL. The IC90 neutralization [8] was 0.0162 µg/mL, the IC50 neutralization [9] was > 1 µg/mL and the IC90 neutralization [9] was > 1 µg/mL. The IC50 neutralization [10] was 0.0018 µg/mL, the IC90 neutralization [10] was 0.0115 µg/mL and the IC50 neutralization [11] was > 1 µg/mL. For the same substance, the IC90 neutralization [11] was > 1 µg/mL, the IC50 neutralization [12] was 0.0024 µg/mL and the IC90 neutralization [12] was 0.0135 µg/mL. For the same substance, the IC50 neutralization [13] was 0.003 µg/mL, the IC90 neutralization [13] was 0.0189 µg/mL and the IC50 neutralization [14] was > 1 µg/mL. For the same substance, the IC90 neutralization [14] was > 1 µg/mL, the IC50 neutralization [15] was 0.0034 µg/mL and the IC90 neutralization [15] was 0.0167 µg/mL. The IC50 neutralization [16] was 0.0012 µg/mL and the IC90 neutralization [16] was 0.0067 µg/mL.
